The experiment concerns the target T1, EGFR501Fcflag (ErbB1501.Fc fusion protein homodimer) (human, UniProt P00533 25-525).
T1 construct: Captured from 293T supernatant on protein G coated wells; also called truncated form of the extracellular domain of the EGF receptor, expressed as an Fc fusion homodimer; not shown: spacer peptide N-terminal of the Fc; human IgG1 Fc region (from a genomic fragment)
Description: Eu-EGF displacement by unlabelled EGF from the Fc fusion homodimer captured on protein G; the reference value is from the literature. The protocol: Ligand binding assays. The wells of a 96-well Lumitrac 600 plate (Greiner) were coated with protein G (2 ug/ml in 10 mM sodium citrate buffer, pH 9.6; Sigma). […] After incubation at room temperature, wells were aspirated, washed in TBS plus 0.05% Tween-20, and Enhancement Solution (Perkin-Elmer) added to each well for 20 minutes.

B1: EGF (species not stated) (ligand)
chain: NSYPGCPSSYDGYCLNGGVCMHIESLDSYTCNCVIGYSGDRCQTRDLRWWELR
modifications: In the FIG. 8 assay the trace is EGF mono-labelled with a europium chelate (Wallac); site not stated. The EGF in the ultracentrifuge is unlabelled.
notes: Kept apart from hEGF and mEGF because these experiments say only EGF; the two experiments may have used different EGF; also called unlabelled EGF; Eu-EGF (Wallac)
In the case of B1, the “fold higher affinity than that reported for the full-length ErbB1 ectodomain-Fc fusion protein” value turned out to be 10 fold.

The values above are taken from patent US20060234343A1 (published 2006).
